The results in this text go back to paper doi:10.1101/212233 (bioRxiv, 2017).

This series concerns the molecule itself. The experiment in a line: cryo-EM structure.

B1: DARP14 subunit B (unfused cage subunit B) (other)
chain: MPHLVIEATANLRLETSPGELLEQANKALFASGQFGEADIKSRFVTLEAYRQGTAAVERAYLHACLSILDGRDIATRTLLGASLCAVLAEAVAGGGEEGVQVSVEVREMERLSYAKRVVARQR
In the case of B1, the binding result is recorded as “binds”.

B2: DARP14 subunit A (cage subunit A fused to the DARPin by a continuous alpha helix) (other)
chain: MRITTKVGDKGSTRLFGGEEVWKDSPIIEANGTLDELTSFIGEAKHYVDEEMKGILEEIQNDIYKIMGEIGSKGKIEGISEERIAWLLKLILRYMEMVNLKSFVLPGGTLESAKLDVCRTIARRALRKVLTVTREFGIGAEAAAYLLALSDLLFLLARVIEIELGKKLLEAARAGQDDEVRILMANGADVNAHDDQGSTPLHLAAWIGHPEIVEVLLKHGADVNARDTDGWTPLHLAADNGHLEIVEVLLKYGADVNAQDAYGLTPLHLAADRGHLEIVEVLLKHGADVNAQDKFGKTAFDISIDNGNEDLAEILQKLN
With B2, the binding result was “binds”.
